Read-outs that look alike come from different tables or passages of the source. Blank lines part the entries; values can stand above or below the binder they belong to.
Legend:
Assay in all cases: pull-down
[1] = molecular target: fibrillarin F>S (six phenylalanines of the N-terminal GF-IDR replaced with serines) (human) (UniProt P22087)
[2] = molecular target: T1, MBP-fibrillarin (full-length) (human, UniProt P22087 1-321)
T1 sequence (looked up): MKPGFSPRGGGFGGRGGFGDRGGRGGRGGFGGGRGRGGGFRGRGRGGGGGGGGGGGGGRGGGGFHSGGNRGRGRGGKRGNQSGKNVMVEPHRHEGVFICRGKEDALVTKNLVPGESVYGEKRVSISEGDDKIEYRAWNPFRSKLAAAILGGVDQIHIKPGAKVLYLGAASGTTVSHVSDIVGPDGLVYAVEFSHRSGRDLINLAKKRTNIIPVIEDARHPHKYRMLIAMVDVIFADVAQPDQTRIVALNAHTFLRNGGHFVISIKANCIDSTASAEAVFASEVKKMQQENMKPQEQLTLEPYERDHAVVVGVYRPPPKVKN

MBP-GAR1 (full-length) = molecular target: T2, MBP-GAR1 (full-length) (human, UniProt Q9NY12 1-217)
T2 sequence (looked up): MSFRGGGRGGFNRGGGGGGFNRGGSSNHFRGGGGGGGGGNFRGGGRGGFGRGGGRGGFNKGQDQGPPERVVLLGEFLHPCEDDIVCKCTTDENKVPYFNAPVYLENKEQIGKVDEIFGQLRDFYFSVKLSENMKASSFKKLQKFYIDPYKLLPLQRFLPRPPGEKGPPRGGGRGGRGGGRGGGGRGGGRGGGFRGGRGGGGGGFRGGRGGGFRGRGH

[3] = molecular target: fibrillarin F>S (six phenylalanines of the N-terminal GF-IDR replaced with serines) (human) (UniProt P22087); remark: listed apart in the source
MBP-NOP58 ΔNLS (human) = MBP-NOP58 ΔNLS (human) (UniProt Q9Y2X3)
[4] = molecular target: T3, MBP fused to the C-terminal NLS IDR of NAP57 (92aa) (human)
T3 sequence (O60832 whole entry, looked up): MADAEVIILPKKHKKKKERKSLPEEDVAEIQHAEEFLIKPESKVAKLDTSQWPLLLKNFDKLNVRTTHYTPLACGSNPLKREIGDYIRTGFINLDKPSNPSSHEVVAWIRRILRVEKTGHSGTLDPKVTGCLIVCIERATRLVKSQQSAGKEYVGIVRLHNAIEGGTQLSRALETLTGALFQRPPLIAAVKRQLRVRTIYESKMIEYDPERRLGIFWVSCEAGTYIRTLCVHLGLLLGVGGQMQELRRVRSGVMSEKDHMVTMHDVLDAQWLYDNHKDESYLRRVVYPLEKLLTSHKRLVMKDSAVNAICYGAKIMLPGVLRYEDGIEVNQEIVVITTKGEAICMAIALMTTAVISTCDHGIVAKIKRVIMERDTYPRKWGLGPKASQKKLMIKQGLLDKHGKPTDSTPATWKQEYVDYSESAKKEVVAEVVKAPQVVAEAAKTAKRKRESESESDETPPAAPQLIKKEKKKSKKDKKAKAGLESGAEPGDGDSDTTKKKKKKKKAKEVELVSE

MBP-NOP58 ΔNLS (human), sequence (Q9Y2X3 whole entry, stated change not applied, the tested form may be a part): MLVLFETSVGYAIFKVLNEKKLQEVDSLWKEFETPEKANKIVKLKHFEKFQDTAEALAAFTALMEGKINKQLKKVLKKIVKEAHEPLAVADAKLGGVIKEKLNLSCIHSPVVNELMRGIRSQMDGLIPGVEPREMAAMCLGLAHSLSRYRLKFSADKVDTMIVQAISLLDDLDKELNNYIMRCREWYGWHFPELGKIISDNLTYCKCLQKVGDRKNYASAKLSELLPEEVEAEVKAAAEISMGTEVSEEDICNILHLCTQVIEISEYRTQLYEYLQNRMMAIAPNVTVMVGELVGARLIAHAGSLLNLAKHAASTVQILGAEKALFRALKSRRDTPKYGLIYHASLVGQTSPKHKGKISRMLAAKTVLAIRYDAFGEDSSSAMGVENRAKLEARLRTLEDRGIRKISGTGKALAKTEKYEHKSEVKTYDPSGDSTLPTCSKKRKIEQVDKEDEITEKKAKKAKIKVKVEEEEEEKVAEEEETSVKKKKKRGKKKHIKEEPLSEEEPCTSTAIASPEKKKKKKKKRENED

- reduction of binding relative to wild-type fibrillarin [1]: 35%
- binding result [2]: binds
- binding result (MBP-GAR1 (full-length)): binds
- reduction of binding relative to wild-type fibrillarin [3]: 40%
B1: GST-GAR1 (natural protein, human, UniProt Q9NY12 1-217, looked up)
chain: T2 sequence (looked up)

- GFP-Nopp140 pulled down relative to WT MBP-NOP58 (MBP-NOP58 ΔNLS (human)): 20%
B2: GFP-Nopp140 (phosphorylated) (natural protein)
chain: MADAGIRRVVPSDLYPLVLGFLRDNQLSEVANKFAKATGATQQDANASSLLDIYSFWLKSAKVPERKLQANGPVAKKAKKKASSSDSEDSSEEEEEVQGPPAKKAAVPAKRVGLPPGKAAAKASESSSSEESSDDDDEEDQKKQPVQKGVKPQAKAAKAPPKKAKSSDSDSDSSSEDEPPKNQKPKITPVTVKAQTKAPPKPARAAPKIANGKAASSSSSSSSSSSSDDSEEEKAAATPKKTVPKKQVVAKAPVKAATTPTRKSSSSEDSSSDEEEEQKKPMKNKPGPYSSVPPPSAPPPKKSLGTQPPKKAVEKQQPVESSEDSSDESDSSSEEEKKPPTKAVVSKATTKPPPAKKAAESSSDSSDSDSSEDDEAPSKPAGTTKNSSNKPAVTTKSPAVKPAAAPKQPVGGGQKLLTRKADSSSSEEESSSSEEEKTKKMVATTKPKATAKAALSLPAKQAPQGSRDSSSDSDSSSSEEEEEKTSKSAVKKKPQKVAGGAAPSKPASAKKGKAESSNSSSSDDSSEEEEEKLKGKGSPRPQAPKANGTSALTAQNGKAAKNSEEEEEEKKKAAVVVSKSGSLKKRKQNEAAKEAETPQAKKIKLQTPNTFPKRKKGEKRASSPFRRVREEEIEVDSRVADNSFDAKRGAAGDWGERANQVLKFTKGKSFRHEKTKKKRGSYRGGSISVQVNSIKFDSE
modifications: serines of the acidic serine repeats phosphorylated (expressed in insect cells to be fully phosphorylated)

- Nopp140 pulled down relative to full-length NAP57 [4]: 50%
B3: Nopp140 (phosphorylated, hexa histidine tagged) (natural protein)
chain: B2 chain
modifications: serines of the acidic serine repeats phosphorylated (expressed in insect cells to be fully phosphorylated)

— publication doi:10.1101/2025.06.18.660405 (bioRxiv, 2025)
